Test results taken from US12673985B2, “Method for the treatment or prophylaxis of cancer by targeting the extracellular portion of keratin 14 (KRT14) residing on cancer cells” (Hudson Institute of Medical Research, priority 2019, dated 2026).
Entries after “also recorded” stand apart in the source; their conditions may differ.

Experiments:
[1] = tested on: SJ-GBM2 primary glioblastoma multiforme; assay: In vitro wound repair assay; assay type: cell-based; details: mAb 1 μg/ml; 16 hrs
Description: (§1) In vitro wound repair assays were conducted on the following cancer cell lines: BT16 atypical teratoid rhabdoid (brain) carcinoma, NCI-H1573 lung adenocarcinoma, SJ-GBM2 primary glioblastoma multiforme, AN3CA endometrial carcinoma, SW620 colorectal carcinoma and MDA-MB-468 breast carcinoma. Cells were grown in complete medium to confluency in a 12-well plate, and subsequently serum-starved overnight to synchronize at G0. The following day, cell culture medium was removed and the cell monolayers were wounded by scraping with a pipette tip attached to suction. Non-adherent cells were removed by gentle washes with phosphate buffered saline (PBS) and complete growth medium was added to each well, in either the absence or presence of mAb AN-17 (at 1 μg/ml). The wound area was imaged every hour for 0-24 hours. Wound closure was measured in image series using AnalySIS LS Research Software (Olympus) to determine the area of the wound on each day. Experiments were repeated in triplicate with at least six wound areas observed per growth condition.

[2] = biological target: T1, full-length recombinant KRT14 protein (Homo sapiens, UniProt P02533); assay: Western blotting for KRT14 detection; assay type: binding; details: dilutions 1:1000 to 1:10,000; 1 μg protein
T1 construct: A 1 μg aliquot of full-length recombinant KRT14 protein (Abcam #ab73637) was separated by SDS PAGE; purchased Abcam ab73637
T1 sequence (P02533 1-472): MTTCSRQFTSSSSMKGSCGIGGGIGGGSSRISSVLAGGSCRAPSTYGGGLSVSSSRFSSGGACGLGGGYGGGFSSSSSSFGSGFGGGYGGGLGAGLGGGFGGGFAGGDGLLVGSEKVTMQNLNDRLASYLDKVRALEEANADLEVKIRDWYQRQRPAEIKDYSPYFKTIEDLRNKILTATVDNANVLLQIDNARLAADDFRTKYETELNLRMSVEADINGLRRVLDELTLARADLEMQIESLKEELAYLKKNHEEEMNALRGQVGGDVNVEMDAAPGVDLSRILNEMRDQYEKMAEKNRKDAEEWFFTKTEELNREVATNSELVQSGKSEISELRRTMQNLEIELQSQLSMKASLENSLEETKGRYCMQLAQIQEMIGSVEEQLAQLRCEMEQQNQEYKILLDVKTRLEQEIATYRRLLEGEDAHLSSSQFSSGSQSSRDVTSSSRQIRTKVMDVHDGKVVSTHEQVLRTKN
Description: Western Blot analyses. SDS-PAGE and western blotting were performed as previously described in Bilandzic et al. (2013) Mol Endocrinol, 2013. 27(3):466-79). Blots were probed using antibodies against KRT14 (1:1000, SAB4501657), mAb AN-17 and β-actin (1:20,000; Sigma-Aldrich, Castle Hill, Australia). Secondary antibodies HRP-conjugated goat anti-mouse, anti-rabbit and donkey anti-goat (1:50,000; Merck Millipore, Kilsyth, Australia) were used Bilandzic et al. (2013) Mol Endocrinol, 2013. 27(3):466-79). Protein bands were detected using Clarity Western ECL blotting substrate (Biorad #1705061) and visualized using a ChemiDoc (Trade Mark) MP System (Bio-Rad, #1708280).
A 1 μg aliquot of full-length recombinant KRT14 protein (Abcam #ab73637) was separated by SDS PAGE and transferred to PVDF membrane using standard procedures (PMID: 23952987). The membrane was probed with mAb AN-17 at dilutions of 1:1000, 1:5000 and 1:10,000. Secondary antibody was goat anti-mouse HRP conjugate (1:50,000 dilution), with detection of KRT14 using chemiluminescence according to standard protocols (PMID: 23952987; Rainczuk et al., J Proteome Res. 2013; 12(9):4074-88).

[3] = tested on: NCI-H1573 lung adenocarcinoma; assay: In vitro wound repair assay; assay type: cell-based; details: mAb 1 μg/ml; 16 hrs
Description: (§2) In vitro wound repair assay. Ovarian cancer cells (or other cancer cell lines—BT16, NCI-H1573, AN3CA, SW620 and MDA-MB-468) were grown in complete medium to confluency in a 12-well plate, then serum-starved overnight to synchronize at G0. The following day cell culture medium was removed, and cell monolayers were wounded by scraping with a pipette tip attached to suction. Non-adherent cells were removed by gentle washes with PBS, and complete growth medium with or without mAb AN-17 (1 μg/ml) or commercial KRT14 polyclonal antibody (1 μg/ml) was replaced. The wound area was imaged under a phase microscope (Leica) at regular intervals ranging from 0-72 h. Wound closure was measured in image series using AnalySIS LS Research Software (Olympus) to determine the area of the wound on each day. Experiments were repeated in triplicate with at least six wound areas observed per growth condition.
as §1

[4] = tested on: MDA-MB-468 breast carcinoma; assay: In vitro wound repair assay; assay type: cell-based; details: mAb 1 μg/ml; 16 hrs
Description: as §2, §1

[5] = tested on: BT16 atypical teratoid rhabdoid (brain) carcinoma; assay: In vitro wound repair assay; assay type: cell-based; details: mAb 1 μg/ml; 16 hrs
Description: as §2, §1

[6] = tested on: 9,184 individual recombinant human proteins; assay: ProtoArray Human Protein Microarrays v5.0 cross-reactivity profiling; assay type: binding; details: mAb diluted 1:500
Description: Proteomic profiling of mAb AN-17 antibody reactivity was performed using Invitrogen™ ProtoArray™ Human Protein Microarrays v5.0 (ThermoFisher Scientific, Waltham MA), comprising 9,184 individual recombinant human proteins spotted in duplicate. All procedures were carried out as previously described (PMID: 29141850; Wilson et al. Cancer Epidemiol Biomarkers Prev. 2018; 27(2):183-192). Arrays were probed using mAb AN-17 diluted 1:500 in wash buffer. Fluorescent detection antibody against IgG heavy and light chains was from Abcam (#ab150119 Goat Anti-Mouse IgG H&L Alexa Fluor® 647, preadsorbed) diluted to […] in wash buffer prior to use. A single array incubated with detection antibody alone was used as a control for non-specific antibody binding.
Array imaging was performed using a Fuji FLA5100 multi wavelength scanner as described (PMID: 29141850; Wilson et al. Cancer Epidemiol Biomarkers Prev. 2018; 27(2):183-192), using a 635 nm excitation laser and dual band pass Cy3/Cy5 filter. Images were acquired at […], with PMT set at 1000V. Array alignment, feature extraction and data normalization were performed as previously described (PMID: 29141850; Wilson et al. Cancer Epidemiol Biomarkers Prev. 2018; 27(2):183-192). Array co-ordinates were obtained from the manufacturer-provided downloadable .GAL files (ThermoFisher Scientific).

[7] = Assessment of mAb AN-17 toxicity, single intraperitoneal dose; assay type: in vivo, mice
Description: Doses of 0.5, 1.0. 2.5, 5.0 and 10 mg/kg were assessed. After 7 days mice were culled, and examined post mortem for any evidence of toxicity (macroscopic tissue appearance, presence of inflammation, or any obvious lesions).

B1: mAb AN-17: monoclonal anti-KRT14 antibody; heavy chain variable region SEQ ID NO:3, light chain variable region SEQ ID NO:5 (clone AN-17A RG4.E5b.A7.B4) (antibody, listed as Mus musculus, V domains shown)
VH: QVQLKESGPGLVAPSQSLSITCTVSGFSLSRYSVHWVRQPPGKGLEWLGMIWGGGSTDYNSALKSRLSISKDNSKSQVFLKMNSLQTDDTAMYYCARKDYGYSYFDYWGQGTTLTVSS
VL: DVLMTQTPLSLPVSLGDQASISCRSSQSIVHSNGNTYLEWYLQKPGQSPKLLIYKVSNRFSGVPDRFSGSGSGTDFTLKISRVEAEDLGVYYCFQGSHVPFTFGSGTKLEIKRADAAPTVS
With B1 the “wound closure / migration, SJ-GBM2” value [1] was “failed to close the wound; also recorded: impaired”, the “detection of KRT14 protein by western blotting” value [2] was “successfully detected KRT14 protein” and the “wound closure / migration, NCI-H1573” value [3] was “failed to close the wound; also recorded: impaired”. The “wound closure / migration, MDA-MB-468” value [4] was “failed to close the wound; also recorded: impaired”, the “wound closure / migration, BT16” value [5] was “failed to close the wound; also recorded: impaired” and the “cross-reactivity with protein antigens on arrays” value [6] was “did not react with any of the proteins present on the arrays tested; also recorded: No cross-reactivity was evident”. For the same molecule, the “cross-reactivity with protein antigens on arrays” value ([6]; listed as mAB AN-17) was “did not react with any of the antigens present on the array, including several related keratin proteins”, the maximum tolerated dose ([7]; doses up to 10 mg/kg i.p.) was “not reached” and the “evidence of toxic effects” value ([7]; single i.p. dose 0.5, 1.0, 2.5, 5.0 and 10 mg/kg, up to 7 days and post mortem) was “No evidence of toxic effects; also recorded: no toxicity noted at any dose or any time point”.
